Results taken from patent publication US20040072753A1 (published 2004).
Where no end group is shown, it is not given here.

B1: EAβBP peptide (ERAB residues 99-108) (peptide, UniProt Q99714 99-108, looked up)
peptide: KTYNLKKGQT
notes: range 99-108; 21 covers only ERAB 101-109; also called EAβBD
B2: Aβ 25-35 (peptide)
peptide: GSNKGAIIGLM
modifications: also: biotinylated in some assays, site not given here
notes: Used both biotinylated and unlabelled; also called biotinylated Aβ 25-35

How the values were obtained:
[1] = molecular target: T1, CAβBP peptide (catalase residues 400-409) (human, UniProt P04040 400-409); assay: ELISA, CAβBP-coated plate
T1 construct: range 400-409; 20 covers only catalase 402-414; also called CAIIBP; CARBP
T1 peptide (looked up): GAPNYYPNSF
Method: (§1) After washing to remove unbound material, an alkaline phosphatase polymer-streptavidin conjugate (Sigma, Dorset, UK) was added and incubated at 37° C. for 2 hours. After washing to remove unbound material, p-nitrophenylphosphate substrate was added and absorbance at 405 nm determined.

[2] = molecular target: T2, Aβ 1-42 (biotinylated (LinKit-Biolink kit, site not stated) where used as the labelled tracer; unlabelled where used as competitor or in activity assays); assay: competition ELISA, EAβBP-coated plate, Scatchard analysis
T2 construct: catalase and cytotoxicity assays; also called biotinylated Aβ 1-42; Amyloid-β 1-42
Method: as §1

[3] = molecular target: B1; assay: ELISA, EAβBP-coated plate
Method: as §1

[4] = molecular target: T3, recombinant human cyclin B1 (human, UniProt P14635 1-433, limits assumed); assay: ELISA, cyclin B1-coated plate
T3 construct: Coated on ELISA plates
Method: (§2) ELISA plates were coated with recombinant human cdc2 or the cdc2 119-133 peptide fragment (CDKP1) (1 μg ml⁻¹) in carbonate buffer and unoccupied sites blocked with 5% (w/v) dried milk. […] After washing to remove unbound material, an alkaline phosphatase polymer-streptavidin conjugate (Sigma, Dorset, UK) was added and incubated at 37° C. for 2 hours. After washing to remove unbound material p-nitrophenylphosphate substrate was added and absorbance at 405 nm determined.
Cyclins are co-factors for cdc2 which are required for enzyme activity. These proteins also contain substrate recognition sequences which may play a role in the recruitment of substrate molecules to the active cdc2/cyclin complex. The recombinant cdc2/cyclin enzyme complex used in the above phosphorylation experiments contained cyclin B1. […] Binding assays as described above using cyclin B1 coated plates were carried out.

[5] = molecular target: T4, recombinant human cdc2 (human, UniProt P06493 1-297, limits assumed); assay: ELISA, cdc2-coated plate, biotinylated peptide 200 pM
T4 construct: Coated on ELISA plates at 1 µg/ml; also called p34-cdc2
Method: as §2

T4 sequence (P06493 whole entry): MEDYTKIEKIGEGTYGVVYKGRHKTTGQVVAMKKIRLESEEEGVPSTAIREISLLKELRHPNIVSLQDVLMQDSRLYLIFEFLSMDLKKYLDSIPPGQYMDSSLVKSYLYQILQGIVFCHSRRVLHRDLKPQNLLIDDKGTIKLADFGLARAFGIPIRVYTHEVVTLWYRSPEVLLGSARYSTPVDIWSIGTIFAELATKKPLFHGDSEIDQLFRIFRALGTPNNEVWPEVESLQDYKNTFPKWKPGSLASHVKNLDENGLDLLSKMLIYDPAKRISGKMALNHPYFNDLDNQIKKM
T3 sequence (P14635 whole entry): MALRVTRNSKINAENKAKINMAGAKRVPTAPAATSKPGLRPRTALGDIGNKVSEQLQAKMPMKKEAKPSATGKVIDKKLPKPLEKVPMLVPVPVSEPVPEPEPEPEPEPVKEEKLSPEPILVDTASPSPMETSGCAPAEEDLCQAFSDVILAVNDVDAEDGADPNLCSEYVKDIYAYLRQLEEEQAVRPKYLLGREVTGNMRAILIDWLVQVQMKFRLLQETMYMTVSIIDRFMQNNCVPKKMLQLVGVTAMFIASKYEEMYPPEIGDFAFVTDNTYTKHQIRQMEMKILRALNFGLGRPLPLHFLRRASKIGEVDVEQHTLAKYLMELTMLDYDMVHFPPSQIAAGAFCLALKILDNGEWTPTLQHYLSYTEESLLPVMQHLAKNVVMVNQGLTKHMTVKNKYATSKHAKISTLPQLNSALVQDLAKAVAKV

Binder: VHHQKLVFFAEDVGSNK (also: biotinylated, site not given here, also called biotinylated Aβ 12-28) [Aβ 12-28]
binding result [1]: no binding (tested: 200 pM biotinylated peptide)

Binder: B1
Kd [2]: 107 nM

Binder: B2
binding result [3]: no binding (tested: 200 pM biotinylated peptide)
binding result [4]: binds
binding result [5]: binds
